Patent publication US20160068860A1, “TRANSGENIC PLANTS” (CONSEJO SUPERIOR DE INVESTIGACIONES CIENTIFICAS (CSIC), priority 2013, published 2016)

Key:
[1] = target: monomeric PYR/PYL receptors; conditions: read-out: Kd for ABA; cited from earlier work
[2] = target: dimeric PYR/PYL receptors; conditions: read-out: Kd for ABA; cited from earlier work
[3] = target: PYR/PYL receptors in the presence of clade A PP2Cs (ternary complexes); conditions: ternary complexes in the presence of certain clade A PP2Cs; read-out: Kd for ABA; cited from earlier work
[4] = target: T1, PYL4C176R F130Y (AtPYL F130Y and C176R)
T1 chain: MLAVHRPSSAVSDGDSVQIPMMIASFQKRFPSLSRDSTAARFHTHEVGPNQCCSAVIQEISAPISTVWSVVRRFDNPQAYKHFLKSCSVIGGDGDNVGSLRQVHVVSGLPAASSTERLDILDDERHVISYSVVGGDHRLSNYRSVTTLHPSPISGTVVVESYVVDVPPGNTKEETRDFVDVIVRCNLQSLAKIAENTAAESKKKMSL

[5] = target: T2, PYL4H82R V97A (AtPYL H82 and V97A)
T2 chain: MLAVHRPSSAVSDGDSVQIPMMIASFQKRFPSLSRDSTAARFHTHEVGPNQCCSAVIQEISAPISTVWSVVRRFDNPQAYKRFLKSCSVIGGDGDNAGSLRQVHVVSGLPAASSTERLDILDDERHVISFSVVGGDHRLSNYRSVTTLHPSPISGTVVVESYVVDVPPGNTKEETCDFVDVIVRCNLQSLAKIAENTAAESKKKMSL

[6] = target: T3, PP2CA (clade A protein phosphatase 2C, At3g11410) (Arabidopsis thaliana, UniProt P49598 1-399, limits assumed); experiment: cell-based or functional assay
T3 sequence (looked up): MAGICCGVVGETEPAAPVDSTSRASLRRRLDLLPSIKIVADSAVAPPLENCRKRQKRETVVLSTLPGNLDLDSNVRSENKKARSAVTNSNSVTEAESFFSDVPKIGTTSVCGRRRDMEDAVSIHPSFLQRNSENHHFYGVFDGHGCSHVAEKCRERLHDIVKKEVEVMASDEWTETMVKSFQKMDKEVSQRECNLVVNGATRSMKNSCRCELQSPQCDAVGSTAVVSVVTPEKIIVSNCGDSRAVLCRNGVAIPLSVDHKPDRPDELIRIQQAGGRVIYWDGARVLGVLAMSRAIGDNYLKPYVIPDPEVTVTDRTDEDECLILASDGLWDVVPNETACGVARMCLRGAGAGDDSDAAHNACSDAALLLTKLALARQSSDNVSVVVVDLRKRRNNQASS

[7] = target: T4, HAB1 (clade A protein phosphatase 2C) (Arabidopsis thaliana, UniProt Q9CAJ0 23-511, limits assumed); experiment: cell-based or functional assay
T4 sequence (looked up): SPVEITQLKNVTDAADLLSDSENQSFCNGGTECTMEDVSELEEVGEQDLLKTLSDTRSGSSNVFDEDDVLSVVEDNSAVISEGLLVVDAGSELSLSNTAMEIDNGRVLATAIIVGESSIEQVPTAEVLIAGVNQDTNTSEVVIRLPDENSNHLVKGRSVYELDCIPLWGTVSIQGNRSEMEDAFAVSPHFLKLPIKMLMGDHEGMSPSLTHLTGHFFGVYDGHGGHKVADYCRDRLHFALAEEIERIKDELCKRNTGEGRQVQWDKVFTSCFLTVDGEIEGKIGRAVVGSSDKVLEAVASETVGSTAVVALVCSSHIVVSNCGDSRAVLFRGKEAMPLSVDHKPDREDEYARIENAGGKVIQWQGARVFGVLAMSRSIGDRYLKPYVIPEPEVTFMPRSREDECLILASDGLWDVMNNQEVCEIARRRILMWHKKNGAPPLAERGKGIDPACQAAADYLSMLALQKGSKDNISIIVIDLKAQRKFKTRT

[8] = tested on: PP2CA; experiment: Yeast two hybrid (Y2H) growth assay with PP2CA; format: cell-based, Arabidopsis; conditions: for interaction with PP2CA in Y2H assay: absence of ABA, growth on medium lacking His and Ade
Protocol: We conducted error-prone PCR mutagenesis by amplification of the PYL4 open reading frame using the following primers: FPYL4Ncol, 5″-GCAGCAGCCATGGTTGCCG TTCACCGTCCTTCT and RPYL4EcoRIstop: […] TCT TCTTCTT, and the following conditions: 2 mM dGTP, dCTP and dTTP, 0.5 mM dATP, 12 mM MgCl2 and Taq polymerase. The PCR product was Ncol-EcoRI doubly digested, cloned into the pGBKT7 vector and DH10B cells were transformed by electroporation. Thus, we generated an allele library in E. coli of approximately 10,000 PYL4 mutant clones. […] The library was shuttled to yeast AH109 by co-transformation with pGAD7-PP2CA. Yeast transformants were pooled and clones able to grow in the absence of exogenous ABA in medium lacking histidine and adenine were selected. Yeast plasmids were extracted, sequenced and retransformed in yeast cells to recapitulate the phenotype. Protocols for yeast two hybrid assays were similar to those described previously (Saez et al., 2008).

[9] = tested on: PP2CA; experiment: In vitro phosphatase activity assay with pNPP substrate, PP2CA; format: biochemical, Arabidopsis; conditions: absence of ABA
Protocol: (§1) Phosphatase activity was measured using as a substrate either pNPP or phosphorylated ΔC-ABF2, ΔC-ABI5 and SLAC11-186 proteins. For the pNPP substrate, assays were performed in a 100 μl solution containing 25 mM Tris-HCl pH 7.5, 2 mM MnCl2 and 5 mM pNPP. Assays contained 2 μM phosphatase (PP2CA or HAB1), 4 μM receptor and the indicated concentrations of ABA. Phosphatase activity was recorded with a ViktorX5 reader at 405 nm every 60 seconds over 30 minutes and the activity obtained after 30 minutes is indicated in the graphics. In order to obtain phosphorylated ΔCABF2, ΔC-ABI5 and SLAC11-186 proteins, OST1 phosphorylation assays were done basically as described previously (Dupeux et al., 2011 b). ΔC-ABF2 and SLAC11-186 N-terminal fragments were prepared as described (Antoni et al., 2012; Vahisalu et al., 2010). ΔC-ABI5 recombinant protein (amino acid residues 1-200, containing the C1, C2 and C3 target sites of ABA-activated SnRK2s) was expressed in the pETM11 vector as described above. The reaction mixture containing the OST1 kinase and either ΔCABF2, ΔC-ABI5 or SLAC11-186 recombinant proteins were incubated for 50 min at room temperature in 30 μl of kinase buffer: 20 mM Tris-HCl pH 7.8, 20 mM MgCl2, 2 mM MnCl2, and 3.5 μCi of γ-32ATP (3000 Ci/mmol). Thus, OST1 was autophosphorylated and in turn it phosphorylated ΔC-ABF2, ΔC-ABI5 and SLAC11-186 proteins. Next, they were used as substrates of PP2CA that was preincubated (or not) for 10 with PYL4 or PYL4A194T (1:10 phosphatase:receptor ratio) either in the absence or presence of 30 μM ABA. The reaction was stopped by adding Laemmli buffer and the proteins were separated by SDS-PAGE using an 8% acrylamide gel and transferred to an Immobilon-P membrane (Millipore). Radioactivity was detected and quantified using a Phosphorimage system (FLA5100, Fujifilm). After scanning, the same membrane was used for Ponceau staining. The data presented are averages of at least three independent experiments.

[10] = target: T5, PP2CA (Arabidopsis thaliana, UniProt O80920+P49598, C176R/F130Y); experiment: as above; format: biochemical; conditions: presence of ABA
T5 construct: made in house; host or cells: E. coli BL21 (DE3)
Protocol: as §1

[11] = target: T3, PP2CA (clade A protein phosphatase 2C, …); experiment: yeast two-hybrid growth assay, absence of ABA
[12] = tested on: Arabidopsis thaliana plants; experiment: Seedling establishment and early seedling growth of OE lines on ABA; format: in vivo; conditions: 0.25 or 0.5 μM ABA
Description: PYL4 or PYL4 mutants were cloned into pCR8/GW/TOPO entry vector (Invitrogen) and recombined by LR reaction into the gateway compatible ALLIGATOR2 vector (Bensmihen et al., 2004). This construct drives expression of PYL4 under control of the 35S CaMV promoter and introduces a triple HA epitope at the N-terminus of the protein. Selection of transgenic lines is based on the visualization of GFP in seeds, whose expression is driven by the specific seed promoter At2S3. The ALLIGATOR2-35S:3HA-PYL4 or mutant constructs were transferred to Agrobacterium tumefaciens C58C1 (pGV2260) (Deblaere et al., 1985) by electroporation and used to transform Columbia wild type plants by the floral dip method. T1 transgenic seeds were selected based on GFP visualization and sowed in soil to obtain the T2 generation. At least three independent transgenic lines were generated for each construct. Homozygous T3 progeny was used for further studies and expression of HA-tagged protein in 21-d-old seedlings was verified by immunoblot analysis using anti-HA-peroxidase (Roche).
After surface sterilization of the seeds, stratification was conducted in the dark at 4° C. for 3 d. Approximately 100 seeds of each genotype were sowed on MS plates supplemented with different ABA concentrations per experiment. To score seed germination, radical emergence was analyzed at 72 h after sowing. Seedling establishment was scored as the percentage of seeds that developed green expanded cotyledons and the first pair of true leaves at 7-d.

[13] = target: T3, PP2CA (clade A protein phosphatase 2C, …); experiment: yeast two-hybrid growth assay, presence of ABA

Molecule: CC1=CC(=O)CC(C)(C)[C@@]1(O)/C=C/C(C)=C\C(=O)O [ABA, abscisic acid]
- Kd [1]: ~1 µM
- Kd [2]: > 50 µM
- Kd [3]: 0.03 to 0.06 µM

B1: PP2CA (clade A protein phosphatase 2C, At3g11410) (protein)
chain: MAGICCGVVGETEPAAPVDSTSRASLRRRLDLLPSIKIVADSAVAPPLENCRKRQKRETVVLSTLPGNLDLDSNVRSENKKARSAVTNSNSVTEAESFFSDVPKIGTTSVCGRRRDMEDAVSIHPSFLQRNSENHHFYGVFDGHGCSHVAEKCRERLHDIVKKEVEVMASDEWTETMVKSFQKMDKEVSQRECNLVVNGATRSMKNSCRCELQSPQCDAVGSTAVVSVVTPEKIIVSNCGDSRAVLCRNGVAIPLSVDHKPDRPDELIRIQQAGGRVIYWDGARVLGVLAMSRAIGDNYLKPYVIPDPEVTVTDRTDEDECLILASDGLWDVVPNETACGVARMCLRGAGAGDDSDAAHNACSDAALLLTKLALARQSSDNVSVVVVDLRKRRNNQASS
- PP2CA phosphatase activity (pNPP substrate) in the absence of ABA [4]: although the H82RV97A and F130Y C176R mutations promoted ABA-independent interactions in Y2H assay, they did not affect PP2CA activity in the absence of ABA
- PP2CA phosphatase activity (pNPP substrate) in the absence of ABA [5]: although the H82RV97A and F130Y C176R mutations promoted ABA-independent interactions in Y2H assay, they did not affect PP2CA activity in the absence of ABA

B2: AtPYL4 wild type polypeptide (At2g38310) (receptor)
chain: MLAVHRPSSAVSDGDSVQIPMMIASFQKRFPSLSRDSTAARFHTHEVGPNQCCSAVIQEISAPISTVWSVVRRFDNPQAYKHFLKSCSVIGGDGDNVGSLRQVHVVSGLPAASSTERLDILDDERHVISFSVVGGDHRLSNYRSVTTLHPSPISGTVVVESYVVDVPPGNTKEETCDFVDVIVRCNLQSLAKIAENTAAESKKKMSL
- IC50 of inhibition of PP2CA phosphatase activity (pNPP substrate; 2 µM phosphatase, 4 µM receptor, ABA concentration varied) [6]: 1 µM
- IC50 of inhibition of HAB1 phosphatase activity (pNPP substrate; 2 µM phosphatase, 4 µM receptor, ABA concentration varied) [7]: 0.25 µM

B3: PYL4C176R F130Y: AtPYL4 mutant polypeptide with F130Y and C176R substitutions (SEQ ID NO. 63) (protein, listed as Arabidopsis thaliana)
chain: MLAVHRPSSAVSDGDSVQIPMMIASFQKRFPSLSRDSTAARFHTHEVGPNQCCSAVIQEISAPISTVWSVVRRFDNPQAYKHFLKSCSVIGGDGDNVGSLRQVHVVSGLPAASSTERLDILDDERHVISYSVVGGDHRLSNYRSVTTLHPSPISGTVVVESYVVDVPPGNTKEETRDFVDVIVRCNLQSLAKIAENTAAESKKKMSL
- interaction with PP2CA in Y2H assay [8]: enhanced the interaction of PYL4 and PP2CA in the absence of ABA
- effect on PP2CA activity [9]: did not affect PP2CA activity
- capacity to inhibit PP2CA [10]: lower capacity to inhibit PP2CA

B4: PYL4C176R F130Y (AtPYL F130Y and C176R) (receptor)
chain: MLAVHRPSSAVSDGDSVQIPMMIASFQKRFPSLSRDSTAARFHTHEVGPNQCCSAVIQEISAPISTVWSVVRRFDNPQAYKHFLKSCSVIGGDGDNVGSLRQVHVVSGLPAASSTERLDILDDERHVISYSVVGGDHRLSNYRSVTTLHPSPISGTVVVESYVVDVPPGNTKEETRDFVDVIVRCNLQSLAKIAENTAAESKKKMSL
notes: also called F130Y C176R
- binding result [11]: binds

B5: PYL4V97A (AtPYL V97A) (receptor)
chain: MLAVHRPSSAVSDGDSVQIPMMIASFQKRFPSLSRDSTAARFHTHEVGPNQCCSAVIQEISAPISTVWSVVRRFDNPQAYKHFLKSCSVIGGDGDNAGSLRQVHVVSGLPAASSTERLDILDDERHVISFSVVGGDHRLSNYRSVTTLHPSPISGTVVVESYVVDVPPGNTKEETCDFVDVIVRCNLQSLAKIAENTAAESKKKMSL
- interaction with PP2CA in Y2H assay [8]: did not affect the interaction in the absence of ABA
- yeast growth in Y2H assay with PP2CA ([8]; presence of ABA (50 μM)): increased yeast growth
- ABA-mediated inhibition of seedling establishment [12]: enhanced ABA-mediated inhibition of seedling establishment compared to non-transformed plants
- binding result [13]: binds
